Laboratory results as given in publication PMC9482650, “Quantitative fragmentomics allow affinity mapping of interactomes” (Nature Communications, 2022).

Tests used:
Assay in all cases: holdup assay
Design in all cases: key: below the threshold = too weak to quantify, mostly under pKd 3.1 to 4
SNTB1, Q13884 = target: T1, SNTB1, Q13884
T1 sequence (Q13884 107-205, limits assumed, looked up): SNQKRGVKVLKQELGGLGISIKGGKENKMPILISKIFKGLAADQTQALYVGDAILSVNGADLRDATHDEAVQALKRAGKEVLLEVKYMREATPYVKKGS

GORASP1, Q9BQQ3 = target: GORASP1, Q9BQQ3
PDZD7_3, Q9H5P4 = target: T2, PDZD7_3, Q9H5P4
T2 sequence (Q9H5P4 857-944, limits assumed, looked up): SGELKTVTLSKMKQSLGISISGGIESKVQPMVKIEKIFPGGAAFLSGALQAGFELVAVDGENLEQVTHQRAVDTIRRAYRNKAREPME

Inadl_1, Q8NI35 = target: Inadl_1, Q8NI35
GRIP2_7, Q9C0E4 = target: GRIP2_7, Q9C0E4
DFNB31_3, Q9P202 = target: T3, DFNB31_3, Q9P202
T3 sequence (Q9P202 811-907, limits assumed, looked up): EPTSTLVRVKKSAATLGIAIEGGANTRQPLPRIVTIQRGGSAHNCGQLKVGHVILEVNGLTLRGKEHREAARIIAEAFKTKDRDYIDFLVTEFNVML

Inadl_2, Q8NI35 = target: Inadl_2, Q8NI35
PTPN3, P26045 = target: PTPN3, P26045
TIAM2, Q8IVF5 = target: T4, TIAM2, Q8IVF5
T4 sequence (Q8IVF5 885-986, limits assumed, looked up): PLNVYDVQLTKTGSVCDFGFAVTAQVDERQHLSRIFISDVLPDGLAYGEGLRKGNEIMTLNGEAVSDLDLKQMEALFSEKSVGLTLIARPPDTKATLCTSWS

PDZRN3_1, Q9UPQ7 = target: T5, PDZRN3_1, Q9UPQ7
T5 sequence (Q9UPQ7 244-349, limits assumed, looked up): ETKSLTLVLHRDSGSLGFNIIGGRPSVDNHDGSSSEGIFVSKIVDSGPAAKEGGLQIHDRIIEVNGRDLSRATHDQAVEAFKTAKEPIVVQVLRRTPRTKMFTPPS

GIPC2, Q8TF65 = target: GIPC2, Q8TF65
PTPN13_1, Q12923 = target: T6, PTPN13_1, Q12923
T6 sequence (Q12923 1088-1188, limits assumed, looked up): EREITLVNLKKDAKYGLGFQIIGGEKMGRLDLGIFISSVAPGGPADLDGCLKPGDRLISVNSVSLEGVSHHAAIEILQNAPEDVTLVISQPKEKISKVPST

FRMPD2_3, Q68DX3 = target: FRMPD2_3, Q68DX3
DLG2_3, Q15700 = target: DLG2_3, Q15700
SCRIB_2, Q14160 = target: SCRIB_2, Q14160
NHERF4_2, Q86UT5 = target: NHERF4_2, Q86UT5
PICK1, Q9NRD5 = target: PICK1, Q9NRD5
TJP3_3, O95049 = target: T7, TJP3_3, O95049
T7 sequence (O95049 375-456, limits assumed, looked up): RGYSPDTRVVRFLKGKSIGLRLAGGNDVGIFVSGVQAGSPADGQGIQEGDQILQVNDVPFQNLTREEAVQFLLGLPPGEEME

SYNJ2BP, P57105 = target: T8, SYNJ2BP, P57105
T8 sequence (P57105 8-110, limits assumed, looked up): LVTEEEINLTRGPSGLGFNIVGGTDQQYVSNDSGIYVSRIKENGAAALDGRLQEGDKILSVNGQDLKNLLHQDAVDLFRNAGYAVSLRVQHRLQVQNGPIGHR

GRIP1_2, Q9Y3R0 = target: T9, GRIP1_2, Q9Y3R0
T9 sequence (Q9Y3R0 145-248, limits assumed, looked up): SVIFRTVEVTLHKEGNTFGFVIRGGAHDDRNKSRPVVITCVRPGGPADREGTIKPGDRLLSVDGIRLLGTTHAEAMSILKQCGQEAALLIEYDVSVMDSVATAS

FRMPD2_2, Q68DX3 = target: FRMPD2_2, Q68DX3
APBA2_1, Q99767 = target: T10, APBA2_1, Q99767
T10 sequence (Q99767 563-664, limits assumed, looked up): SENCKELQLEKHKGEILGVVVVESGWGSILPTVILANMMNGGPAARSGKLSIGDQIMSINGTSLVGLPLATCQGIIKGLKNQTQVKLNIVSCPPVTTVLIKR

APBA3_1, O96018 = target: T11, APBA3_1, O96018
T11 sequence (O96018 389-490, limits assumed, looked up): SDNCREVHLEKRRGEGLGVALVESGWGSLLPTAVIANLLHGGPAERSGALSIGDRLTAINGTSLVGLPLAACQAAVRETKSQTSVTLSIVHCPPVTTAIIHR

DLG4_2, P78352 = target: DLG4_2, P78352
MAGI2_6, Q86UL8 = target: MAGI2_6, Q86UL8
PDZRN4_1, Q6ZMN7 = target: PDZRN4_1, Q6ZMN7
[1] = plain residues with an end cap or a label only (N-terminal biotin on a linker: ahx)
[2] = plain residues with an end cap or a label only (N-terminal biotin on a linker: ttds)
[3] = plain residues with an end cap or a label only (N-terminal biotin on a linker: ado-ado, ttds)

Chain of GIPC2, Q8TF65 (Q8TF65 112-203): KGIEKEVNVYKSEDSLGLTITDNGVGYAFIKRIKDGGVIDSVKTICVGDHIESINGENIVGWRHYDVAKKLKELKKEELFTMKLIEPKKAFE
Chain of NHERF4_2, Q86UT5 (Q86UT5 220-308): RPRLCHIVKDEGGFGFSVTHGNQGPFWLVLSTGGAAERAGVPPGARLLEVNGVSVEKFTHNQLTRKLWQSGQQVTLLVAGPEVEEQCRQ
Chain of Inadl_1, Q8NI35 (Q8NI35 113-229): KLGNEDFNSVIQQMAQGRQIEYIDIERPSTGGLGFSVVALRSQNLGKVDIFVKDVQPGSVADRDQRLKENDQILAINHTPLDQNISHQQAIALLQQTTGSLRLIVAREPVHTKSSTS
Chain of FRMPD2_2, Q68DX3 (Q68DX3 944-1038): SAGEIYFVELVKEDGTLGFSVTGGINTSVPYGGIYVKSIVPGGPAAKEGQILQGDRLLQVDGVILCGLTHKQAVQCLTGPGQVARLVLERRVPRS
Chain of GRIP2_7, Q9C0E4 (Q9C0E4 934-1023): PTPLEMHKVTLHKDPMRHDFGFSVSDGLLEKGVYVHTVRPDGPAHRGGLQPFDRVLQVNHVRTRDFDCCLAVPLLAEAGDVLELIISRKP
Chain of DLG4_2, P78352 (P78352 155-259): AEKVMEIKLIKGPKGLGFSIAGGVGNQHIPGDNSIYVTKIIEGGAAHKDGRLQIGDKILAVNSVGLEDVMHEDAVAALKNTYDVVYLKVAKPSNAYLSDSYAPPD
Chain of GORASP1, Q9BQQ3 (Q9BQQ3 1-208): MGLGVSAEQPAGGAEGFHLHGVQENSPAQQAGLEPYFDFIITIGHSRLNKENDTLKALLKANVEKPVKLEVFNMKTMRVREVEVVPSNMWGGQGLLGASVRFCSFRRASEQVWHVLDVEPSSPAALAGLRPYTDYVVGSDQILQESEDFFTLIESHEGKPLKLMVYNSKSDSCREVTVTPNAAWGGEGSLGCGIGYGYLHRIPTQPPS
Chain of PTPN3, P26045 (P26045 505-587): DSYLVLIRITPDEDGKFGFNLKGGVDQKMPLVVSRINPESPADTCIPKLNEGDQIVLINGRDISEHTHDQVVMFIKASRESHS
Chain of PICK1, Q9NRD5 (Q9NRD5 17-115): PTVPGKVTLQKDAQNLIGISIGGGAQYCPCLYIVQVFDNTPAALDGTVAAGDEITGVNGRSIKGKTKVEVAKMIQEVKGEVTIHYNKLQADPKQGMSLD
Chain of Inadl_2, Q8NI35 (Q8NI35 238-335): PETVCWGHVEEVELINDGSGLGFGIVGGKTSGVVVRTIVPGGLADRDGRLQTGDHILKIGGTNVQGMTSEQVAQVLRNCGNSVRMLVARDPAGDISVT
Chain of PDZRN4_1, Q6ZMN7 (Q6ZMN7 213-318): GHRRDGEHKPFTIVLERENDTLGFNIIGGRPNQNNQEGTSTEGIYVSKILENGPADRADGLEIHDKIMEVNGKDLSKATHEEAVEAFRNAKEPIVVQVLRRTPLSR
Chain of MAGI2_6, Q86UL8 (Q86UL8 1141-1229): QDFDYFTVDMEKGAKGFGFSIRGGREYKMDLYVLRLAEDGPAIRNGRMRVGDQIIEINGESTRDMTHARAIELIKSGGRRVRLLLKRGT
Chain of FRMPD2_3, Q68DX3 (Q68DX3 1073-1166): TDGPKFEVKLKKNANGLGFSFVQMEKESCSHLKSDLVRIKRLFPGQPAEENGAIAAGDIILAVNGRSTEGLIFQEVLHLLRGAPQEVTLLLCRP
Chain of SCRIB_2, Q14160 (Q14160 857-960): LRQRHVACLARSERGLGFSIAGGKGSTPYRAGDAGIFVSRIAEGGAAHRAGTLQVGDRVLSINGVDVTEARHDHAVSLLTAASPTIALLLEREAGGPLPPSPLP

## SKKNELFSNL [NHERF1, O14745]
SNTB1, Q13884; [1]
  pKd: below the threshold
GORASP1, Q9BQQ3; [1]
  pKd: below the threshold
PDZD7_3, Q9H5P4; [1]
  pKd: below the threshold
Inadl_1, Q8NI35; [1]
  pKd: below the threshold
GRIP2_7, Q9C0E4; [1]
  pKd: below the threshold
DFNB31_3, Q9P202; [1]
  pKd: below the threshold
Inadl_2, Q8NI35; [1]
  pKd: below the threshold
PTPN3, P26045; [1]
  pKd: below the threshold
TIAM2, Q8IVF5; [1]
  pKd: below the threshold
PDZRN3_1, Q9UPQ7; [1]
  pKd: below the threshold
GIPC2, Q8TF65; [1]
  pKd: below the threshold
PTPN13_1, Q12923; [1]
  pKd: below the threshold
FRMPD2_3, Q68DX3; [1]
  pKd: below the threshold
DLG2_3, Q15700; [1]
  pKd: below the threshold
SCRIB_2, Q14160; [1]
  pKd: below the threshold
NHERF4_2, Q86UT5; [1]
  pKd: below the threshold
PICK1, Q9NRD5; [1]
  pKd: below the threshold
TJP3_3, O95049; [1]
  pKd: below the threshold
SYNJ2BP, P57105; [1]
  pKd: below the threshold
GRIP1_2, Q9Y3R0; [1]
  pKd: below the threshold
FRMPD2_2, Q68DX3; [1]
  pKd: below the threshold
APBA2_1, Q99767; [1]
  pKd: below the threshold
APBA3_1, O96018; [1]
  pKd: below the threshold
DLG4_2, P78352; [1]
  pKd: below the threshold
MAGI2_6, Q86UL8; [1]
  pKd: below the threshold
PDZRN4_1, Q6ZMN7; [1]
  pKd: below the threshold

## PPRQRSETQV [HPV82-E6, Q9IR59]
SNTB1, Q13884; [2]
  pKd: 4.05
GORASP1, Q9BQQ3; [2]
  pKd: below the threshold
PDZD7_3, Q9H5P4; [2]
  pKd: 3.84
Inadl_1, Q8NI35; [2]
  pKd: below the threshold
GRIP2_7, Q9C0E4; [2]
  pKd: below the threshold
DFNB31_3, Q9P202; [2]
  pKd: below the threshold
Inadl_2, Q8NI35; [2]
  pKd: below the threshold
PTPN3, P26045; [2]
  pKd: 4.31
TIAM2, Q8IVF5; [2]
  pKd: below the threshold
PDZRN3_1, Q9UPQ7; [2]
  pKd: 3.81
GIPC2, Q8TF65; [2]
  pKd: below the threshold
PTPN13_1, Q12923; [2]
  pKd: below the threshold
FRMPD2_3, Q68DX3; [2]
  pKd: below the threshold
DLG2_3, Q15700; [2]
  pKd: 4.9
SCRIB_2, Q14160; [2]
  pKd: 4.26
NHERF4_2, Q86UT5; [2]
  pKd: below the threshold
PICK1, Q9NRD5; [2]
  pKd: below the threshold
TJP3_3, O95049; [2]
  pKd: below the threshold
SYNJ2BP, P57105; [2]
  pKd: 4.86
GRIP1_2, Q9Y3R0; [2]
  pKd: below the threshold
FRMPD2_2, Q68DX3; [2]
  pKd: below the threshold
APBA2_1, Q99767; [2]
  pKd: below the threshold
APBA3_1, O96018; [2]
  pKd: below the threshold
DLG4_2, P78352; [2]
  pKd: 4.9
MAGI2_6, Q86UL8; [2]
  pKd: 3.46
PDZRN4_1, Q6ZMN7; [2]
  pKd: 3.83

## SNAKAVETDV [KCNA4, P22459]
SNTB1, Q13884; [3]
  pKd: 4.71
GORASP1, Q9BQQ3; [3]
  pKd: below the threshold
PDZD7_3, Q9H5P4; [3]
  pKd: below the threshold
Inadl_1, Q8NI35; [3]
  pKd: below the threshold
GRIP2_7, Q9C0E4; [3]
  pKd: below the threshold
DFNB31_3, Q9P202; [3]
  pKd: below the threshold
Inadl_2, Q8NI35; [3]
  pKd: below the threshold
PTPN3, P26045; [3]
  pKd: 4.53
TIAM2, Q8IVF5; [3]
  pKd: below the threshold
PDZRN3_1, Q9UPQ7; [3]
  pKd: below the threshold
GIPC2, Q8TF65; [3]
  pKd: below the threshold
PTPN13_1, Q12923; [3]
  pKd: below the threshold
FRMPD2_3, Q68DX3; [3]
  pKd: below the threshold
DLG2_3, Q15700; [3]
  pKd: below the threshold
SCRIB_2, Q14160; [3]
  pKd: 4.67
NHERF4_2, Q86UT5; [3]
  pKd: below the threshold
PICK1, Q9NRD5; [3]
  pKd: below the threshold
TJP3_3, O95049; [3]
  pKd: below the threshold
SYNJ2BP, P57105; [3]
  pKd: 4.37
GRIP1_2, Q9Y3R0; [3]
  pKd: below the threshold
FRMPD2_2, Q68DX3; [3]
  pKd: 3.52
APBA2_1, Q99767; [3]
  pKd: below the threshold
APBA3_1, O96018; [3]
  pKd: below the threshold
DLG4_2, P78352; [3]
  pKd: 5.19
MAGI2_6, Q86UL8; [3]
  pKd: 4.35
PDZRN4_1, Q6ZMN7; [3]
  pKd: below the threshold

## SSIDLWETAL [SLC15A5, A6NIM6]
SNTB1, Q13884; [2]
  pKd: 5.41
GORASP1, Q9BQQ3; [2]
  pKd: 4.02
PDZD7_3, Q9H5P4; [2]
  pKd: 5.56
Inadl_1, Q8NI35; [2]
  pKd: below the threshold
GRIP2_7, Q9C0E4; [2]
  pKd: below the threshold
DFNB31_3, Q9P202; [2]
  pKd: below the threshold
Inadl_2, Q8NI35; [2]
  pKd: below the threshold
PTPN3, P26045; [2]
  pKd: 5.4
TIAM2, Q8IVF5; [2]
  pKd: below the threshold
PDZRN3_1, Q9UPQ7; [2]
  pKd: 5.87
GIPC2, Q8TF65; [2]
  pKd: 4.04
PTPN13_1, Q12923; [2]
  pKd: below the threshold
FRMPD2_3, Q68DX3; [2]
  pKd: below the threshold
DLG2_3, Q15700; [2]
  pKd: 3.73
SCRIB_2, Q14160; [2]
  pKd: 5.14
NHERF4_2, Q86UT5; [2]
  pKd: below the threshold
PICK1, Q9NRD5; [2]
  pKd: below the threshold
TJP3_3, O95049; [2]
  pKd: below the threshold
SYNJ2BP, P57105; [2]
  pKd: 5.45
GRIP1_2, Q9Y3R0; [2]
  pKd: below the threshold
FRMPD2_2, Q68DX3; [2]
  pKd: 4.3
APBA2_1, Q99767; [2]
  pKd: below the threshold
APBA3_1, O96018; [2]
  pKd: below the threshold
DLG4_2, P78352; [2]
  pKd: 4.22
MAGI2_6, Q86UL8; [2]
  pKd: 5.08
PDZRN4_1, Q6ZMN7; [2]
  pKd: 5.58
